Measurements taken from the Human Domainome abundance scans (Beltran et al. 2025).
± gives the uncertainty stated by the source.

B1: KAT8 regulatory NSL complex subunit 2, residues 28 to 91; numbered along this chain, Q9H9L4 (parent)
chain: CAFTHRPCSHPRLEGQEFCIKHILEDKNAPFKQCSYISTKNGKRCPNAAPKPEKKDGVSFCAEH

Variants of: B1
Assay: abundance fitness (aPCA) (normalised: wild type 0, dead -1); higher = more abundant; growth selection in yeast, the domain comes from the species named
Details: Homo sapiens

| Variant | abundance fitness |
| --- | --- |
| CAFTHRPCSHPRLEGQEFCIKHILEDKNLPFKQCSYISTKNGKRCPNAAPKPEKKDGVSFCAEH [A29L] | -0.217 ± 0.065 |
| CAFTHRPCSHPRLEGQEFCIKHILEDKNGPFKQCSYISTKNGKRCPNAAPKPEKKDGVSFCAEH [A29G] | -0.128 ± 0.048 |
| CAFTHRPCSHPRLEGQEFCIKHILEDKNHPFKQCSYISTKNGKRCPNAAPKPEKKDGVSFCAEH [A29H] | -0.208 ± 0.11 |
| CAFTHRPCSHPRLEGQEFCIKHILEDKNWPFKQCSYISTKNGKRCPNAAPKPEKKDGVSFCAEH [A29W] | -0.422 ± 0.068 |
| CAFTHRPCSHPRLEGQEFCIKHILEDKNCPFKQCSYISTKNGKRCPNAAPKPEKKDGVSFCAEH [A29C] | -0.151 ± 0.083 |
| CAFTHRPCSHPRLEGQEFCIKHILEDKNRPFKQCSYISTKNGKRCPNAAPKPEKKDGVSFCAEH [A29R] | -0.167 ± 0.037 |
| CAFTHRPCSHPRLEGQEFCIKHILEDKNIPFKQCSYISTKNGKRCPNAAPKPEKKDGVSFCAEH [A29I] | -0.358 ± 0.1 |
| CAFTHRPCSHPRLEGQEFCIKHILEDKNTPFKQCSYISTKNGKRCPNAAPKPEKKDGVSFCAEH [A29T] | -0.133 ± 0.084 |
| CAFTHRPCSHPRLEGQEFCIKHILEDKNVPFKQCSYISTKNGKRCPNAAPKPEKKDGVSFCAEH [A29V] | -0.196 ± 0.047 |
| CAFTHRPCSHPRLEGQEFCIKHILEDKNYPFKQCSYISTKNGKRCPNAAPKPEKKDGVSFCAEH [A29Y] | -0.287 ± 0.1 |
| CAFTHRPCSHPRLEGQEFCIKHILEDKNNPFKQCSYISTKNGKRCPNAAPKPEKKDGVSFCAEH [A29N] | -0.22 ± 0.15 |
| CAFTHRPCSHPRLEGQEFCIKHILEDKNDPFKQCSYISTKNGKRCPNAAPKPEKKDGVSFCAEH [A29D] | -0.225 ± 0.1 |
| CAFTHRPCSHPRLEGQEFCIKHILEDKNEPFKQCSYISTKNGKRCPNAAPKPEKKDGVSFCAEH [A29E] | -0.308 ± 0.083 |
| CAFTHRPCSHPRLEGQEFCIKHILEDKNKPFKQCSYISTKNGKRCPNAAPKPEKKDGVSFCAEH [A29K] | -0.186 ± 0.079 |
| CAFTHRPCSHPRLEGQEFCIKHILEDKNQPFKQCSYISTKNGKRCPNAAPKPEKKDGVSFCAEH [A29Q] | -0.278 ± 0.14 |
| CAFTHRPCSHPRLEGQEFCIKHILEDKNPPFKQCSYISTKNGKRCPNAAPKPEKKDGVSFCAEH [A29P] | -0.225 ± 0.058 |
| CAFTHRPCSHPRLEGQEFCIKHILEDKNSPFKQCSYISTKNGKRCPNAAPKPEKKDGVSFCAEH [A29S] | -0.048 ± 0.072 |
| CAFTHRPCSHPRLEGQEFCIKHILEDKNMPFKQCSYISTKNGKRCPNAAPKPEKKDGVSFCAEH [A29M] | -0.204 ± 0.074 |
| CAFTHRPCSHPRLEGQEFCIKHILEDKNAIFKQCSYISTKNGKRCPNAAPKPEKKDGVSFCAEH [P30I] | -0.162 ± 0.13 |
| CAFTHRPCSHPRLEGQEFCIKHILEDKNAHFKQCSYISTKNGKRCPNAAPKPEKKDGVSFCAEH [P30H] | -0.253 ± 0.093 |
| CAFTHRPCSHPRLEGQEFCIKHILEDKNAEFKQCSYISTKNGKRCPNAAPKPEKKDGVSFCAEH [P30E] | -0.251 ± 0.093 |

| Variant | abundance fitness |
| --- | --- |
| CAFTHRPCSHPRLEGQEFCIKHILEDKNARFKQCSYISTKNGKRCPNAAPKPEKKDGVSFCAEH [P30R] | -0.198 ± 0.046 |
| CAFTHRPCSHPRLEGQEFCIKHILEDKNALFKQCSYISTKNGKRCPNAAPKPEKKDGVSFCAEH [P30L] | -0.188 ± 0.046 |
| CAFTHRPCSHPRLEGQEFCIKHILEDKNAKFKQCSYISTKNGKRCPNAAPKPEKKDGVSFCAEH [P30K] | -0.156 ± 0.1 |
| CAFTHRPCSHPRLEGQEFCIKHILEDKNAQFKQCSYISTKNGKRCPNAAPKPEKKDGVSFCAEH [P30Q] | -0.279 ± 0.1 |
| CAFTHRPCSHPRLEGQEFCIKHILEDKNANFKQCSYISTKNGKRCPNAAPKPEKKDGVSFCAEH [P30N] | -0.178 ± 0.11 |
| CAFTHRPCSHPRLEGQEFCIKHILEDKNACFKQCSYISTKNGKRCPNAAPKPEKKDGVSFCAEH [P30C] | -0.275 ± 0.065 |
| CAFTHRPCSHPRLEGQEFCIKHILEDKNASFKQCSYISTKNGKRCPNAAPKPEKKDGVSFCAEH [P30S] | -0.136 ± 0.052 |
| CAFTHRPCSHPRLEGQEFCIKHILEDKNAAFKQCSYISTKNGKRCPNAAPKPEKKDGVSFCAEH [P30A] | -0.205 ± 0.06 |
| CAFTHRPCSHPRLEGQEFCIKHILEDKNAYFKQCSYISTKNGKRCPNAAPKPEKKDGVSFCAEH [P30Y] | -0.335 ± 0.076 |
| CAFTHRPCSHPRLEGQEFCIKHILEDKNATFKQCSYISTKNGKRCPNAAPKPEKKDGVSFCAEH [P30T] | -0.184 ± 0.066 |
| CAFTHRPCSHPRLEGQEFCIKHILEDKNAGFKQCSYISTKNGKRCPNAAPKPEKKDGVSFCAEH [P30G] | -0.074 ± 0.054 |
| CAFTHRPCSHPRLEGQEFCIKHILEDKNAFFKQCSYISTKNGKRCPNAAPKPEKKDGVSFCAEH [P30F] | -0.368 ± 0.067 |
| CAFTHRPCSHPRLEGQEFCIKHILEDKNAWFKQCSYISTKNGKRCPNAAPKPEKKDGVSFCAEH [P30W] | -0.514 ± 0.087 |
| CAFTHRPCSHPRLEGQEFCIKHILEDKNADFKQCSYISTKNGKRCPNAAPKPEKKDGVSFCAEH [P30D] | -0.155 ± 0.075 |
| CAFTHRPCSHPRLEGQEFCIKHILEDKNAMFKQCSYISTKNGKRCPNAAPKPEKKDGVSFCAEH [P30M] | -0.261 ± 0.084 |
| CAFTHRPCSHPRLEGQEFCIKHILEDKNAVFKQCSYISTKNGKRCPNAAPKPEKKDGVSFCAEH [P30V] | -0.256 ± 0.068 |
| CAFTHRPCSHPRLEGQEFCIKHILEDKNAPPKQCSYISTKNGKRCPNAAPKPEKKDGVSFCAEH [F31P] | -0.183 ± 0.072 |
| CAFTHRPCSHPRLEGQEFCIKHILEDKNAPMKQCSYISTKNGKRCPNAAPKPEKKDGVSFCAEH [F31M] | -0.175 ± 0.057 |
| CAFTHRPCSHPRLEGQEFCIKHILEDKNAPSKQCSYISTKNGKRCPNAAPKPEKKDGVSFCAEH [F31S] | -0.179 ± 0.058 |
| CAFTHRPCSHPRLEGQEFCIKHILEDKNAPLKQCSYISTKNGKRCPNAAPKPEKKDGVSFCAEH [F31L] | -0.188 ± 0.052 |
| CAFTHRPCSHPRLEGQEFCIKHILEDKNAPNKQCSYISTKNGKRCPNAAPKPEKKDGVSFCAEH [F31N] | -0.323 ± 0.094 |
